Assay results from the RNAGym collection of RNA variant scans (doi:10.1073/pnas.2313332121).
Variants at the floor of the assay were thinned out.

B1: TPR 5TU (parent)
chain: GGAUCUUCUCGAUCUAACAAAAAAGACAAAUCUGCCACAAAGCUUGAGAGCAUCUUCGGAUGCAGAGGCGGCAGCCUUCGGUGGCGCGAUAGCGCCAACGUUCUCAACUAUGACACGCAAAACGCGUGCUCCGUUGAAUGGAGUUUAUCAUG

Variants of: B1
Assay: polymerase ribozyme fitness, log enrichment relative to wild type (log ratio); higher = more active; in vitro selection for triplet polymerase activity
Procedure, shortened: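 The heterodimeric triplet polymerase ribozyme's subunits were each mutagenized into PCR-built libraries and transcribed. Every library was selected once, in triplicate, by annealing with a biotinylated primer, the partner subunit and triplets, incubating frozen at −7 °C, gel-excising extended constructs, capturing on streptavidin beads and running RT-PCR. Input and output libraries were Illumina-sequenced, with genotypes kept only at ≥10 input reads and ≥1 read per output. Fitness, from inverse-variance-weighted replicate averages, is the base-2 logarithm of genotype enrichment over wild-type enrichment.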

Variant | polymerase ribozyme fitness (log ratio)
GGAUCUGCUCGAUCUAACAAAAAAGACAAAUCUGCCACAAAGCUUGAGAGCAACUGCGGAUGCAGAGGCGGCAGCCUUCGGUGUCGCGAUAGCGCCAACGUUCUCAACUAUGACACGCAAAACGCGUGCUCCGUUGAAUGGAGUUUACCAUG [U7G U53A U56G G84U U148C] | ≤ -4.2
GGAUCUUCUCGAUCUAACAAAGAAGACAAAUCUGCCACAAAGCUUGAGAGCAUCUUCGGAUGCAGAGGCGGCAGCCUUCGGUGGCGCGAUAGCGCCAACGUUCUCAACUAUGACACGCAAAACACGUGCUCCGUUGAAUGGAGUUUAUCAUG [A22G G124A] | 0.539
GGAUCUUGUCGAUCUAACAAAAAAGACAAAUCUGCCACAAAGCUUGAGAGCAUCUUCGGAUGCAGAGGCGGCAGCCUUAGGUGGCGCGAUUGCGCCAACGUUCUCACCUAUGACACGCAAAACCCGUGCUCCGUUGAAUGGAGCUUAUCAUG [C8G C79A A91U A107C G124C U144C] | ≤ -4.2
GGAUCUUCUCGAUCUAACAAAAAAGACAAAUCUGCCACAAAGCUUGAGAGCAUCUUCCGAAGCAGAGGCGGCAGCCUUAGGUGGCGCGAUGGCGCCAACGUUCUCAACUAUGACACACAAAACGCGUGCUCCGUUGAAUGGAGUUUAUCAUG [G58C U61A C79A A91G G117A] | ≤ -4.2
GGAUCUUCUCGAUCUAACAAAAAAGACAAAUCUGCCACAAAGCUUGACCGCAUCUUCGGGAGCAGGGGCGGCAGCCUUCGGUGGCGAGAUAGCGCCAACGUUCUCAACUAUGACACGCAAAACGCGUGCUCCGUUGAAUGGAGUUUAUCAUG [G48C A49C A60G U61A A66G C87A] | ≤ -4.2
GGAUCUUCUCGAUCUAACAUAAAAGACAAAUCUGCCACAAAACUUGAGAGCAUCUUCGGAUACAGAGGCGGCAGCCUUCGGUGGCUCGAUAGCGCCAACGUUCUCAACUAUGACACGCAAAACGCGUGCUCCGGUGAAUUGAGUUUAUCAUG [A20U G42A G62A G86U U134G G140U] | ≤ -4.2
GGAUCUUCUCGAUCUAACAAAAAAGACAAAUCUGCCACAAAGCGUGAUAGCAUCUUCGGAUGCAGAGGCGGCAGCCUUCGGUGGCACGAUAGCGCCAACCUUCUAAACUAUGACACGCAAAACGCAUGCUCCGCUGAAUGGAGUUUAUCAUG [U44G G48U G86A G100C C105A G126A U134C] | ≤ -4.2
GGAUCUUCUCGAUCUAGCAAAAAAGACAAAUCUGCCACAAAGCUUGAGAGCAACUUCGGAUGCAGAGGCGGCAGCCUUCGGUGGCGCGAUAGCGCCAACGUUCUCAACUAUGACACGCAAAACGCGUGCUCCGUUGAAUGGAGUUUAUCAUG [A17G U53A] | -0.401
GGAUCUUCUCGAUCUAACAAAAAAGACAAAUCUGCCACAAAGCUUGAGAGCAUCUUCGGAUGGAGGGGCGACAUCCUUCGGUGGCGCGAUAGCGCCAACGUUCUCAACUAUGACACGCAAAACGCGUGCUCCGUGGAAUGGACUUUAUCAUG [C63G A66G G71A G74U U135G G143C] | ≤ -4.2
GGAUUUUCUCGAUCUAACAAAAAAGACAAAUCUGCCACAAAGCUUGAGAGCAUCUUCGGAUGCAGAGGCGGCAGACUUCGGUGGCGCGAUAGCGCCAACGUUCUCAACUAUGACACGCAAAACGCGUGCUCCGUUGAAUGGAGUUUAUCAUG [C5U C75A] | -4.03
GGAUCUUCUCGAUCUAACAAAAAAGACAAAUCUGCCACAAAGCUUGAGAGCAUCUUCGGAUGCAGAGGCGGCAGCCUUCGGUGGCACGAUAGCCCCAACGUUCUCAACUAUGACACGCAAAACGCGUGCUCUGUUGAAUGCAGUUUAUCAUG [G86A G94C C132U G141C] | ≤ -4.2
GGAUCUUCUCGAUCUAACAAAAAAGACAAAUCUGCCACAAAGCUUGACAGCAUCUUCGGAUGCAGAGGCGGCAGCCUUCGGUGGCGCGAUAGCGCCAAUGUUCUCAACUAUGACACGCAAAACGCGUGCUCCGUUGAAUGGAGUUUAUCAUG [G48C C99U] | -1.72
GGAUCUUCUCGAUCUAACAAAAAAGACAAAUCUGCCACAAAGCUUGAGAGCAUCUUCGGAUGCAGAGGCGGCAGCCUUCGGAGGCGCGAUAGCGCCAACGUUCUCAACUAUGACUCGCAAAACGCGUGCUCCGUAGAAUGGAGUUUAUCAUG [U82A A115U U135A] | -2.53
GGAUCUUCUCGAUCUAACAAAAAAGACAAAUCUGCCACAAAGCUUGAGAGCAUCUUCGCAUGCAGAGGCGGCAGCCUUCGGUGGCGCGAUAGCGCCAACGUUCUCAACUAUGACACGCAUACCGCGUGCUCCGUUGAAUGGAGUUUGUCAUG [G59C A120U A122C A147G] | -1.22
GGAUCUUCUCGAUCUAACAUAGAAGACAAAUCUGCCACAAAGCUUGAGAGAAUCUUCGGAUGCAGAGGCGGCAGCCUUCGGUGGCGCGAUAAAGCCAACGUUCUCAACUAUGACACGCAAAACGCGUGCUCUGUUGAAUGGAGUUUAUCAUG [A20U A22G C51A G92A C93A C132U] | ≤ -4.2
GGAUCUUCUCGAUCUAACAAAAAAGACAAAUCUGCCACAAAGCUUGAGAGGAUCUACGGAUGCAGAGGCGGCAGCCUUCGGUGGCGCGUUAGCGCCAACGUUCUCAACUAUGACACGCCAAACGCGUGUUCCGUUGAAUGGAGUUUAUCAUG [C51G U56A A89U A119C C129U] | ≤ -4.2
GGAUCUUCUCGAUCUAACAAAAAAGACAAAUCUGCCACAAAGCUUGAGAGCAUCUUCGGAUGCAGAGGCGGCAGCCUUCGGUGGCGCGAUAGCGCGAACGUUCUCAAUUAUGACACGCAAAACGCGUGCUCCGUUGAAUGGAGUUUAUCAUG [C96G C108U] | -2.5
GGAUCUUCUCGAUCUAACAAAAAAGACAAAUCUGCAACAAAGCUUGAGAGCAUCUUCGGCUGCAGAGGCGCCAGCCUUAGGUGACGCGAUGGGGCCAACGUUCUCAACUAUGACACGCAAAACGCGUGCUCCGUUGAAUGGAGUUUAUCAUG [C36A A60C G71C C79A G84A A91G C93G] | ≤ -4.2
GGAUCUUCUGGAUCUAACAAAAAAGACAAAUCUGCCACAAAGCUUGAGAGCAUCUUCGGAUGCAGAGGCGGCUGCAUUCGGUGGGGCGAUAGCGCCAACGUUCUCAACUAUGACACGCAAAACGCGUGCUCCGUUGAAUGGAGUUUAUCAUG [C10G A73U C76A C85G] | ≤ -4.2
